Results taken from patent US20240158474A1 (SINO BIOLOGICAL, published 2024).

Legend:
HPV16 VLP protein = biological target: T1, HPV16 VLP protein (human papillomavirus type 16, UniProt P03101 1-474); assay: indirect ELISA, VLP coated at 2 µg/mL, antibody 10 ng/mL, HRP goat anti-rabbit Fc
T1 construct: Complete VLP protein; no limits of the construct printed, whole entry named; also called HPV-16L1
T1 sequence: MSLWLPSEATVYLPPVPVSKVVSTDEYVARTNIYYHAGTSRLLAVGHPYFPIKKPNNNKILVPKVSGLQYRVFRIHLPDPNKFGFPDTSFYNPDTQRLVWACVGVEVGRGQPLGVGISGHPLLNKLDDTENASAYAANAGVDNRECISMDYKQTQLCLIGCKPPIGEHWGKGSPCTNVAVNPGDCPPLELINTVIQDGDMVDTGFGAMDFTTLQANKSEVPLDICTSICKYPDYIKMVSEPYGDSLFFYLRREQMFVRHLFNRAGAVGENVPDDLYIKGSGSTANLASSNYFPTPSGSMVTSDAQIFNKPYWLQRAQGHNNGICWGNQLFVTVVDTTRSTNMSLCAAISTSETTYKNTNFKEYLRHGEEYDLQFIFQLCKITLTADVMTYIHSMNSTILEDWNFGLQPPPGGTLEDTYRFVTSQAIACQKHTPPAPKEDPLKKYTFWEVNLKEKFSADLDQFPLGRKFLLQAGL

HPV51 VLP protein = biological target: T2, HPV51 VLP protein (human papillomavirus type 51, UniProt P26536 1-474); assay: as above
T2 construct: Complete VLP protein; no limits of the construct printed, whole entry named; also called HPV51L1
T2 sequence: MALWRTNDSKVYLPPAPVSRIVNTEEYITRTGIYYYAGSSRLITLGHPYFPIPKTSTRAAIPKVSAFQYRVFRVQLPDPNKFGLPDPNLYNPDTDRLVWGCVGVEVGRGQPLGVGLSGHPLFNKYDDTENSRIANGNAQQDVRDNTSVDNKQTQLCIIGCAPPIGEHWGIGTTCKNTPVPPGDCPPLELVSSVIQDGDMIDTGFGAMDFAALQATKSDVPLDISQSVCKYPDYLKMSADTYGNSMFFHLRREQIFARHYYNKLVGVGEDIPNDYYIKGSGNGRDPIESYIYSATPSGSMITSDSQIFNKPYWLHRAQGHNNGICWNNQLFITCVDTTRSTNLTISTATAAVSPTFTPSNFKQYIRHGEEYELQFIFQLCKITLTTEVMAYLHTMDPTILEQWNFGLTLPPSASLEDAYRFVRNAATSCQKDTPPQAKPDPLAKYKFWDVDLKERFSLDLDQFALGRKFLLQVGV

B1: monoclonal antibody HPV6-R003 (antibody, V domains shown)
VH: QQQLEESGGGLVKPGGTLTLTCKASGIDLSNYYMCWVRQAPGKGLEWIGCIYTGSGRTYYASWAKGRFTISKASSTTVTLQMTSLTAADTATYFCARDYLGWRASNIWGPGTLVTVSS
VL: ELVMTQTPSSVSAAVGGTVTINCQASQSVYSNNLVWYQQKPGQPPKLLIYGASTLASGVPSRFKGSGSGTQFTLTISDVVCDDAATYYCGGYVSDSTDGTAFGGGTEVVVKG
notes: here built from variable plus constant region so that the signal peptides are left out; In the sandwich ELISA the same antibody is used as coating antibody and, labelled with horseradish peroxidase, as detection antibody; also called anti-HPV6 L1 protein antibody
OD450-blank (HPV16 VLP protein): 0.048 OD450 | OD450-blank (HPV51 VLP protein): 0.041 OD450
